Consider three molecules from US20250388669A1 (published 2025).

The target in experiment [1] is T1, B7H3 (human, UniProt Q5ZPR3 29-466, limits assumed).
T1 sequence (looked up): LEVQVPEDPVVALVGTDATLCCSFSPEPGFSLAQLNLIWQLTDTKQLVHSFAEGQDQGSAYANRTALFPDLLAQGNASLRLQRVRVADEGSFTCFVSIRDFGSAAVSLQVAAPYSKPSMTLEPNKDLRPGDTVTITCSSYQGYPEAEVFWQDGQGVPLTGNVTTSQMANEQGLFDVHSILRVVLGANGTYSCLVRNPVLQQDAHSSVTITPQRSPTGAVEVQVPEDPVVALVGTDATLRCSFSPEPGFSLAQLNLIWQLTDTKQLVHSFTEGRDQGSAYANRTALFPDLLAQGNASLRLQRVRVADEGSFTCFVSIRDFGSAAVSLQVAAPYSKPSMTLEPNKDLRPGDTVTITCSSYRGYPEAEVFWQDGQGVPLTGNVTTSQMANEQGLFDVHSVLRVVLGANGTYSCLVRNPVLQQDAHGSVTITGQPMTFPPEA
As to the kind of experiment: ELISA or FCM (Example 2). (ELISA stands for enzyme-linked immunosorbent assay.)

The target in experiment [2] is T2, B7H3 (human, UniProt Q5ZPR3 29-466, limits assumed).
T2 construct: Tumor associated antigen; also called huB7H3
T2 sequence (looked up): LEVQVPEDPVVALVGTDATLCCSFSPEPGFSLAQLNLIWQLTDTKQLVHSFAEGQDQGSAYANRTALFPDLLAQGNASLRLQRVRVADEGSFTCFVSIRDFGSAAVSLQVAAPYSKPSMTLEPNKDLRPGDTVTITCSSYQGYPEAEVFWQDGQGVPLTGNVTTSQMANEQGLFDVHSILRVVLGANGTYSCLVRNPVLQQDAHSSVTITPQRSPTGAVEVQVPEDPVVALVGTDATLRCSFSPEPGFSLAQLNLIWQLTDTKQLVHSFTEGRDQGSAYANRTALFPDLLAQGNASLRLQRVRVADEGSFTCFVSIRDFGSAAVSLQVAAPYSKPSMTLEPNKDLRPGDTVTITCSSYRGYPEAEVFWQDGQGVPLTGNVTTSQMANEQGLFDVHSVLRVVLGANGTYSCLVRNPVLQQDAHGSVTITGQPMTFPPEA
As to the kind of experiment: FCM or ELISA.

B1: Ly2385 (other)
chain 1: QVQLVQSGAEVKKPGASVKVSCKASGYTFTSYVMHWVRQKPGQGLEWIGYINPYNEGTESTDKFKGRATMTSDKSTSTVYMELSSLRSEDTAVYYCASIYYGYEGTYFGVWGQGTLVTVSSASTKGPSVFPLAPSSKSTSGGTAALGCLVKDYFPEPVTVSWNSGALTSGVHTFPAVLQSSGLYSLSSVVTVPSSSLGTQTYICNVNHKPSNTKVDKKVEPKSCGGSEVQLVESGGGLVQPGGSLRLSCAASGFTFSTYAMNWVRQAPGKGLEWVGRIRSKYNNYATYYADSVKGRFTISRDDSKNSLYLQMNSLKTEDTAVYYCVRHGNFGNSYVSWFAYWGQGTLVTVSSGGGGSDKTHTCPPCPAPEAAGPSVFLFPPKPKDTLMISRTPEVTCVVVDVSHEDPEVKFNWYVDGVEVHNAKTKPREEQYNSTYRVVSVLTVLHQDWLNGKEYKCKVSNKALPAPIEKTISKAKGQPREPQVYTLPPSREEMTKNQVSLWCLVKGFYPSDIAVEWESNGQPENNYKTTPPVLDSDGSFFLYSKLTVDKSRWQQGNVFSCSVMHEALHNHYTQKSLSLSPGGGGGSGGGGSGGGGSGGGGSQVQLVQSGAEVKKPGASVKVSCKASGYTFAGFEMHWVRQAPGQGLEWMGAIDPKTGGTDYNQKFKDRVTMTRDTSISTAYMELSRLRSDDTAVYYCARDLGYFDVWGQGTLVTVSS
chain 2: QVQLVQSGAEVKKPGASVKVSCKASGYTFTSYVMHWVRQKPGQGLEWIGYINPYNEGTESTDKFKGRATMTSDKSTSTVYMELSSLRSEDTAVYYCASIYYGYEGTYFGVWGQGTLVTVSSASTKGPSVFPLAPSSKSTSGGTAALGCLVKDYFPEPVTVSWNSGALTSGVHTFPAVLQSSGLYSLSSVVTVPSSSLGTQTYICNVNHKPSNTKVDKKVEPKSCGGSQAVVTQEPSLTVSPGGTVTLTCRSSTGAVTTSNYANWVQQKPGQAPRGLIGGTNKRAPWTPARFSGSLLGGKAALTITGAQAEDEADYYCALWYSNLWVFGGGTKLTVLGGGGSDKTHTCPPCPAPEAAGPSVFLFPPKPKDTLMISRTPEVTCVVVDVSHEDPEVKFNWYVDGVEVHNAKTKPREEQYNSTYRVVSVLTVLHQDWLNGKEYKCKVSNKALPAPIEKTISKAKGQPREPQVYTLPPSREEMTKNQVSLSCAVKGFYPSDIAVEWESNGQPENNYKTTPPVLDSDGSFFLVSKLTVDKSRWQQGNVFSCSVMHEALHNRFTQKSLSLSPGGGGGSGGGGSGGGGSGGGGSDIQMTQSPSSLSASVGDRVTITCRASQDIRSNLNWYQQKPGGAVKLLIYYTSRLHSGVPSRFSGSGSGTDYTLTISSLQPEDFATYFCQQSEKLPRTFGGGTKVEIR
light: EIVLTQSPATLSLSPGERATLSCRASSSVSYMHWYQQKPGQAPRPWIYATSNLASGIPARFSGSRSGTDYTLTISSLEPEDFAVYYCQQWSSNTLTFGGGTKVEIKRTVAAPSVFIFPPSDEQLKSGTASVVCLLNNFYPREAKVQWKVDNALQSGNSQESVTEQDSKDSTYSLSSTLTLSKADYEKHKVYACEVTHQGLSSPVTKSFNRGEC
notes: Tri-specific antibody: B7H3 Fabs, central CD3 Fv, terminal CD137 Fv; Flexible linker is G2S
As for B1, the binding result in the experiment with B7H3 [1] was “binds”.

B2: Ly1965 (bispecific antibody)
chain 1: QVQLVQSGAEVKKPGASVKVSCKASGYTFTSYVMHWVRQKPGQGLEWIGYINPYNEGTESTDKFKGRATMTSDKSTSTVYMELSSLRSEDTAVYYCASIYYGYEGTYFGVWGQGTLVTVSSASTKGPSVFPLAPSSKSTSGGTAALGCLVKDYFPEPVTVSWNSGALTSGVHTFPAVLQSSGLYSLSSVVTVPSSSLGTQTYICNVNHKPSNTKVDKKVEPKSCGGGGSGGGGSGGGGSGGGGSEVQLVESGGGLVQPGGSLRLSCAASGFTFSTYAMNWVRQAPGKGLEWVGRIRSKYNNYATYYADSVKGRFTISRDDSKNSLYLQMNSLKTEDTAVYYCVRHGNFGNSYVSWFAYWGQGTLVTVSSGGGGSDKTHTCPPCPAPEAAGPSVFLFPPKPKDTLMISRTPEVTCVVVDVSHEDPEVKFNWYVDGVEVHNAKTKPREEQYNSTYRVVSVLTVLHQDWLNGKEYKCKVSNKALPAPIEKTISKAKGQPREPQVYTLPPSREEMTKNQVSLWCLVKGFYPSDIAVEWESNGQPENNYKTTPPVLDSDGSFFLYSKLTVDKSRWQQGNVFSCSVMHEALHNHYTQKSLSLSPG
chain 2: QVQLVQSGAEVKKPGASVKVSCKASGYTFTSYVMHWVRQKPGQGLEWIGYINPYNEGTESTDKFKGRATMTSDKSTSTVYMELSSLRSEDTAVYYCASIYYGYEGTYFGVWGQGTLVTVSSASTKGPSVFPLAPSSKSTSGGTAALGCLVKDYFPEPVTVSWNSGALTSGVHTFPAVLQSSGLYSLSSVVTVPSSSLGTQTYICNVNHKPSNTKVDKKVEPKSCGGGGSGGGGSGGGGSGGGGSQAVVTQEPSLTVSPGGTVTLTCRSSTGAVTTSNYANWVQQKPGQAPRGLIGGTNKRAPWTPARFSGSLLGGKAALTITGAQAEDEADYYCALWYSNLWVFGGGTKLTVLGGGGSDKTHTCPPCPAPEAAGPSVFLFPPKPKDTLMISRTPEVTCVVVDVSHEDPEVKFNWYVDGVEVHNAKTKPREEQYNSTYRVVSVLTVLHQDWLNGKEYKCKVSNKALPAPIEKTISKAKGQPREPQVYTLPPSREEMTKNQVSLSCAVKGFYPSDIAVEWESNGQPENNYKTTPPVLDSDGSFFLVSKLTVDKSRWQQGNVFSCSVMHEALHNRFTQKSLSLSPG
light: EIVLTQSPATLSLSPGERATLSCRASSSVSYMHWYQQKPGQAPRPWIYATSNLASGIPARFSGSRSGTDYTLTISSLEPEDFAVYYCQQWSSNTLTFGGGTKVEIKRTVAAPSVFIFPPSDEQLKSGTASVVCLLNNFYPREAKVQWKVDNALQSGNSQESVTEQDSKDSTYSLSSTLTLSKADYEKHKVYACEVTHQGLSSPVTKSFNRGEC
notes: B7H3/CD3: two B7H3 Fabs, central CD3 Fv
As to B2, in the experiment with B7H3 [2], the binding result is “binds”.

B3: Ly2279 (bispecific antibody)
chain 1: not shown
chain 2: QVQLVQSGAEVKKPGASVKVSCKASGYTFTSYVMHWVRQKPGQGLEWIGYINPYNEGTESTDKFKGRATMTSDKSTSTVYMELSSLRSEDTAVYYCASIYYGYEGTYFGVWGQGTLVTVSSASTKGPSVFPLAPSSKSTSGGTAALGCLVKDYFPEPVTVSWNSGALTSGVHTFPAVLQSSGLYSLSSVVTVPSSSLGTQTYICNVNHKPSNTKVDKKVEPKSCGGGGSGGGGSGGGGSGGGGSDIQMTQSPSSVSASVGDRVTITCRASQGIYSWLAWYQQKPGKAPNLLIYTASTLQSGVPSRFSGSGSGTDFTLTISSLQPEDFATYYCQQANIFPLTFGGGTKVEIKGGGGSDKTHTCPPCPAPEAAGPSVFLFPPKPKDTLMISRTPEVTCVVVDVSHEDPEVKFNWYVDGVEVHNAKTKPREEQYNSTYRVVSVLTVLHQDWLNGKEYKCKVSNKALPAPIEKTISKAKGQPREPQVYTLPPSREEMTKNQVSLSCAVKGFYPSDIAVEWESNGQPENNYKTTPPVLDSDGSFFLVSKLTVDKSRWQQGNVFSCSVMHEALHNRFTQKSLSLSPG
light: EIVLTQSPATLSLSPGERATLSCRASSSVSYMHWYQQKPGQAPRPWIYATSNLASGIPARFSGSRSGTDYTLTISSLEPEDFAVYYCQQWSSNTLTFGGGTKVEIKRTVAAPSVFIFPPSDEQLKSGTASVVCLLNNFYPREAKVQWKVDNALQSGNSQESVTEQDSKDSTYSLSSTLTLSKADYEKHKVYACEVTHQGLSSPVTKSFNRGEC
notes: B7H3/CD40: two B7H3 Fabs, central CD40 Fv (TM383)
As to B3, the binding result in the experiment with B7H3 [2] was “binds”.
